Molecular target: T1, ADGal4/rDr1 fusion protein (Gal4 activation domain fused to rice Dr1, encoded by pADGal4::rDr1) (rice)
T1 construct: Expressed in yeast YRG-2 for the two-hybrid assay; Coding region of rice Dr1 (EcoR I/Sma I fragment) fused in frame
T1 chain: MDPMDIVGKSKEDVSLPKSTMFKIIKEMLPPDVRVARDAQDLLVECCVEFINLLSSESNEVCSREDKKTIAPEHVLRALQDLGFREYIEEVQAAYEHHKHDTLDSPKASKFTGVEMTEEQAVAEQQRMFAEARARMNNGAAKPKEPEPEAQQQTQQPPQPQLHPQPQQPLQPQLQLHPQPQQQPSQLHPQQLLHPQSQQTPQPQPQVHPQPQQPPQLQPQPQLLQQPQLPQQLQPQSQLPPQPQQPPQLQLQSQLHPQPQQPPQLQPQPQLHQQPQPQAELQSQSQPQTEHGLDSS
Experiment: yeast two-hybrid (Gal4 system, YRG-2), growth on medium lacking Trp, Leu and His
Excerpt: USA 88: 9578-9582). The rice Dr1 and DRAP1 cDNAs described in Example 5 were fused with pAD-Gal4 and pBD-Gal4 to generate pADGal4::rDr1 and pBDGal4::rDRAP1 constructs respectively. The EcoR I and Sma I fragment containing coding region of rice Dr1 was cloned into pAD-Gal4 EcoR I and Sma I sites to generate pADGal4::rDr1. The Mfe I and Pst I fragment containing coding region of rice DRAP1 was cloned into pBD-Gal4 EcoR I and Pst I sites to generate pBDGal4::rDRAP1. The pADGal4::rDr1 and pBDGal4::rDRAP1 were transformed independently and co-transformed into Stratagene's YRG-2 yeast strain (Stratagene, San Diego, Calif.). Competent YRG-2 cells were prepared according to the method of Eible (1992) Biotechniques 13:18-20) and transformed with one microgram of DNA added to a […] aliquot of competent yeast cells. A mixture containing 240 PI 50% PEG (MW 3350), 36 μl 1 M lithium acetate, and 50 μg of salmon sperm DNA was added to the yeast-DNA mixture. After mixing the mixture was incubated at 30° C. for 30 minutes and heat shocked at 42° C. for 20 minutes. Maximum of 200 μl of transformation mixture was plated on selective plates. For initial plating transformants containing the pADGal4::rDr1 construct (trp+), were plated on selection medium lacking tryptophan. […]

B1: Truncated rice DRAP1 (N-terminal deletion of 63 amino acids) fused to Gal4 DNA binding domain, encoded by pBDGal4::rDRAP1NN64 (other, not shown: large carriers)
chain: SFHLKQCVRRYSSFDFLTEVVNKVPDLGGADSCGDDRALPRRRKALPNGSDPENEESRSSKMAVRSANISPRGRGRGRGRGRGRPPTKRKEVGYVQFEDESSMFADQGEALPGEETVPETIHGTESVPPSTHPPAEAPSAAEIPAPNPKVEEAKNDDHQPDWPMPDAIGNIGVGPSGFGHLTVQVDEDEDYDNED
notes: Lacks the N-terminal 63 amino acids of rice DRAP1
  binding result: no binding

From patent publication US20040181828A1 (E I DUPONT DE NEMOURS, published 2004)
